Assay results: PMC9080080

Target: SARS-CoV-2 Omicron-S (SARS-CoV-2) (UniProt P0DTC2)
Test: cryo-EM structure

“SARS-CoV-2 Omicron-S (from UniProt P0DTC2 340-527) (natural protein)” showed a stoichiometry N of 3.
